The source of these data is patent publication US20250066483A1 (FUSO PHARMACEUTICAL INDUSTRIES, published 2025).

Assay [1] concerns the target T1, canine PD-L1 on cPD-L1-EGFP expressing COS-7 cells (canine, UniProt E2RKZ5 19-289).
T1 construct: Transient expression in COS-7 cells; also called canine PD-L1 expressing cells; cPD-L1-EGFP expressing cell
T1 sequence: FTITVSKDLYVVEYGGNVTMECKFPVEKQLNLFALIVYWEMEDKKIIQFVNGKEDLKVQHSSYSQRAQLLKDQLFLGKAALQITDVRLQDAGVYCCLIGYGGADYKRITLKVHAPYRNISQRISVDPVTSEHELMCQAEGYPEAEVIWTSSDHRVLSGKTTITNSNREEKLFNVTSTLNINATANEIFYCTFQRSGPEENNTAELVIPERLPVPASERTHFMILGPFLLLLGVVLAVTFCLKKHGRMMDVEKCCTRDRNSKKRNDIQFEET
The assay can be described thus: flow cytometry (section 2.5). How it is done: In order to identify rat anti-bovine PD-L1 monoclonal antibody showing cross-reactivity with canine PD-L1, flow cytometry was performed using the anti-bovine PD-L1 antibody prepared in 2.1 above. The anti-bovine PD-L1 antibody (10 μg/ml) was reacted with 2×10⁵-1×10⁶ cells at room temperature for 30 min. After washing, the anti-bovine PD-L1 antibody was detected with allophycocyanine-labeled anti-rat Ig goat antibody (Beckman Coulter). FACS Verse (Becton, Dickinson and Company) was used for analysis. As negative controls, rat IgG2a (κ) isotype control (BD Biosciences), rat IgG1 (κ) isotype control (BD Biosciences) and rat IgM (κ) isotype control (BD Biosciences) were used. For every washing operation and dilution of antibodies, 10% inactivated goat serum-supplemented PBS was used (MaekawaN, Konnai S, Ikebuchi R, Okagawa T, Adachi M, Takagi S, KagawaY, Nakajima C, Suzuki Y, Murata S, Ohashi K. PLoS One. 2014 Jun. 10; 9(6):e98415 which is an article describing the use of three bovine PD-L1 monoclonal antibodies: 4G12 (Rat IgG2a (κ)), 5A2 (Rat IgG1 (κ)) and 6G7 (Rat IgM (κ)).

A further assay addresses T2, canine PD-L1-His (canine).
T2 construct: extracellular domain; Made in Expi293F cells; also called cPD-L1-His
In words: SPR (Biacore X100), cPD-L1-His captured by anti-histidine antibody on a CM5 chip, antibody as analyte. How it is done:
Using a biomolecular interaction analyzer (Biacore X100), the binding avidities to cPD-L1-His of rat anti-bovine PD-L1 monoclonal antibody 4G12 and rat-canine chimeric anti-PD-L1 antibody c4G12 were assessed. Briefly, anti-histidine antibody was fixed on CM5 censor chip, followed by capturing of cPD-L1-His. Subsequently, monoclonal antibodies were added as analyte to observe specific binding. […] Further, the binding avidities of canine PD-1-Ig and CD80-Ig to cPD-L1-His were measured in the same manner and found to be clearly lower than that of rat-canine chimeric anti-PD-L1 antibody c4G12 (Table 1).
On the technique in general: In SPR one partner is held on a chip, and binding of the other changes the refractive index at the surface.

For assay [2], the target named is T1, canine PD-L1 on cPD-L1-EGFP expressing …. The assay can be described thus: flow cytometry on canine PD-L1 expressing cells.
The target of another assay is T3, bovine FcγRI-His (bovine).
T3 construct: extracellular domain; Made in Expi293F cells; also called soluble bovine FcγRI
The assay can be described thus: ELISA: antibody immobilized at 1.56 to 50 nM, bovine FcγRI-His added at 10 µg/ml, detection with anti-polyhistidine antibody and HRP anti-mouse IgG [A]. As for the experimental part: (§1) Subsequently, each well was washed with 200 μl of 0.05% Tween 20-supplemented PBS (PBS-T) five times, followed by blocking with SuperBlock (PBS) Blocking Buffer (Thermo Fisher Scientific) at 37° C. for 30 min. Each well was washed again in the same manner. Then, bovine FcγRI-His, FcγRII-His, FcγRIII-His or Fcγ2R-His was added to each well at a final concentration of 10 μg/ml and reacted at 37° C. for 1 hr. After washing, anti-polyhistidine tag mouse monoclonal antibody (Abcam) was reacted at 37° C. for 30 min. Subsequently, each well was washed, and horseradish peroxidase-labeled anti-mouse IgG goat polyclonal antibody (MP Biomedicals) was reacted at 37° C. for 30 min. Each well was washed again, and then TMB One Component Substrate (Bethyl) was added for coloring. Thereafter, the enzyme reaction was terminated with 0.18 M dilute sulfuric acid, and absorbance (450 nm) was measured with Microplate Reader MTP-900 (Corona Electric).
On the technique in general: An ELISA detects its analyte on a solid surface through an enzyme-linked reagent.

In the next assay the target is T4, bovine PD-1-His (bovine).
T4 construct: extracellular domain; Made in Expi293F cells; also called soluble bovine PD-1-His; PD-1 protein
In words: SPR (Biacore X100), bovine PD-1-His immobilised on a CM5 chip, antibody as analyte, single kinetics, 3 repeats. As for the experimental part: The binding avidities to bovine PD-1 of rat anti-bovine PD-1 antibody 5D2 and rat-bovine chimeric anti-bovine PD-1 antibody ch5D2 were measured by surface plasmon resonance using a biomolecular interaction analyzer (Biacore X100). Briefly, bovine PD-1-His (described above) was immobilized on a CM5 sensor chip (GE Healthcare) as a ligand. Subsequently, rat anti-bovine PD-1 antibody 5D2 or rat-bovine chimeric anti-bovine PD-1 antibody ch5D2 was reacted as an analyte, followed by single kinetics analysis. The experiment was repeated 3 times under the same conditions. Binding constant (kd value) and dissociation constant (ka value) were determined in each experiment, and binding avidity (KD value) was obtained.

A further assay addresses T5, bovine FcγRII-His (bovine, UniProt Q28110 43-225).
T5 construct: extracellular domain; Made in Expi293F cells; also called soluble bovine FcγRII
T5 sequence: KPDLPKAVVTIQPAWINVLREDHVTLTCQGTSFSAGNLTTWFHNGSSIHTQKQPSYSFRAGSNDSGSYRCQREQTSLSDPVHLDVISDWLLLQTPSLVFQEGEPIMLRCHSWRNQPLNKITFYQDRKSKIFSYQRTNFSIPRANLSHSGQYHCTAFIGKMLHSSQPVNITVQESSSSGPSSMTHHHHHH
The assay can be described thus: ELISA: antibody immobilized at 1.56 to 50 nM, bovine FcγRII-His added at 10 µg/ml [B]. As for the experimental part: as §1

The term kon denotes the rate constant with which the complex forms. Low values mean slower complex formation, high ones faster complex formation. A word on the EC50 (read off the curve): it is the concentration giving half of the maximal effect. In general, Kd refers to the concentration at which binding is half-saturated. Low values mean tighter binding, high ones weaker binding. For orientation: koff means a measure of how fast the partners let go of each other.

B1: rat anti-bovine PD-L1 monoclonal antibody 4G12 (antibody, V domains shown)
VH: QVQLQQSGAELVKPGSSVKISCKASGYTFTSNFMHWVKQQPGNGLEWIGWIYPEYGNTKYNQKFDGKATLTADKSSSTAYMQLSSLTSEDSAVYFCASEEAVISLVYWGQGTLVTVSS
VL: DIAITQSPSSVAVSVGETVTLSCKSSQSLLYSENQKDYLGWYQQKPGQTPKPLIYWATNRHTGVPDRFTGSGSGTDFTLIISSVQAEDLADYYCGQYLVYPFTFGPGTKLELK
Turning to B1, the binding result in assay [1] was “binds”. Moreover, the kon with canine PD-L1-His was 2.42e+06 M⁻¹ s⁻¹.

B2: rat-canine chimeric anti-PD-L1 antibody c4G12 (antibody, V domains shown)
VH: B1 VH
VL: DIAITQSPSSVAVSVGETVTLSCKSSQSLLYSENQKDYLGWYQQKPGQTPKPLIYWATNRHTGVPDRFTGSGSGTDFTLIISSVQAEDLADYYCGQYLVYPFTFGPGTKLELKQ
notes: 4G12 variable regions on canine IgG-D (equivalent to human IgG4) heavy and canine lambda light constant regions
For the molecule B2, the binding result in assay [2] is reported as “binds”. Moreover, the kon in the assay with canine PD-L1-His was found to be 3.14e+06 M⁻¹ s⁻¹.

B3: rat-bovine chimeric anti-bovine PD-1 antibody ch5D2 having wild-type bovine IgG1 (IgG1 WT) (antibody)
heavy: QVQLKETGPGLVQPTQTLSITCTVSGFSLTSYYIQWVRQTPGKGLEWMGFIRSGGSTEYNSEFKSRLSINRDTSKNQVFLKMNSLKTEDTGVYYCARTSSGYEGGFDYWGQGVMVTVSSASTTAPKVYPLSSCCGDKSSSTVTLGCLVSSYMPEPVTVTWNSGALKSGVHTFPAVLQSSGLYSLSSMVTVPGSTSGQTFTCNVAHPASSTKVDKAVDPTCKPSPCDCCPPPELPGGPSVFIFPPKPKDTLTISGTPEVTCVVVDVGHDDPEVKFSWFVDDVEVNTATTKPREEQFNSTYRVVSALRIQHQDWTGGKEFKCKVHNEGLPAPIVRTISRTKGPAREPQVYVLAPPQEELSKSTVSLTCMVTSFYPDYIAVEWQRNGQPESEDKYGTTPPQLDADSSYFLYSKLRVDRNSWQEGDTYTCVVMHEALHNHYTQKSTSKSAGK
light: DVVLTQTPVSLSVTLGDQASISCRSSQSLEYSDGYTYLEWYLQKPGQSPQLLIYGVSNRFSGVPDRFIGSGSGTDFTLKISRVEPEDLGVYYCFQATHDPDTFGAGTKLELKQPKSPPSVTLFPPSTEELNGNKATLVCLISDFYPGSVTVVWKADGSTITRNVETTRASKQSNSKYAASSYLSLTSSDWKSKGSYSCEVTHEGSTVTKTVKPSECS
notes: Made in Expi293F cells; also called ch5D2 IgG1 WT
As for B3, the “EC50 (read off the curve)” value in the assay with bovine FcγRI-His was ~9 nM.

B4: rat-bovine chimeric anti-bovine PD-1 antibody ch5D2 (mutated bovine IgG1, IgG1 ADCC-) (antibody)
heavy: QVQLKETGPGLVQPTQTLSITCTVSGFSLTSYYIQWVRQTPGKGLEWMGFIRSGGSTEYNSEFKSRLSINRDTSKNQVFLKMNSLKTEDTGVYYCARTSSGYEGGFDYWGQGVMVTVSSASTTAPKVYPLSSCCGDKSSSTVTLGCLVSSYMPEPVTVTWNSGALKSGVHTFPAVLQSSGLYSLSSMVTVPGSTSGQTFTCNVAHPASSTKVDKAVDPTCKPSPCDCCPPPPVAGPSVFIFPPKPKDTLTISGTPEVTCVVVDVGHDDPEVKFSWFVDDVEVNTATTKPREEQFNSTYRVVSALRIQHQDWTGGKEFKCKVHNEGLPSSIVRTISRTKGPAREPQVYVLAPPQEELSKSTVSLTCMVTSFYPDYIAVEWQRNGQPESEDKYGTTPPQLDADSSYFLYSKLRVDRNSWQEGDTYTCVVMHEALHNHYTQKSTSKSAGK
light: B3 light
notes: 5D2 variable regions on bovine IgG1 (modified from X62916); also called ch5D2 IgG1 ADCC-
B4: in the assay with bovine PD-1-His, binding was characterised by a dissociation constant (Kd) of 10.5 nM, the koff amounted to 0.000216 s⁻¹ and the kon was 20700 M⁻¹ s⁻¹. In addition, the binding result in the assay with bovine FcγRII-His was “no binding (tested: 50 nM)”.
